Measurements published in patent US20170313754A1 (PROTAGONIST THERAPEUTICS, published 2017).
Numbered stars: 1 amine (or outer) side, 2 acyl side, 3 side chain; on linkers, the order of the positions; unused ones are H or OH. Bridge positions count the residues as written; N and C are the ends. Square brackets hold non-standard residues; d marks the D form. Primed or numbered codes have the meaning given here. Side chains are listed from the residue outwards. Ends that are not written are not given here. * marks the point of attachment. PEG3″ = NH2CH2CH2(OCH2CH2)3CH2CH2CO2H (PEG3 linker), NCCOCCOCCOCCCCC(=O)*; Ida = iminodiacetic acid, O=C(CN(CC(=O)[*:3])[*:1])[*:2]; γGlu = O=C(O)[C@H](CCC(=O)[*:2])N[*:1]; Palmitoyl = CCCCCCCCCCCCCCCC(=O)*; dapa = diaminopropionic acid; Lauroyl = CCCCCCCCCCCC(=O)*; Decanoyl = CCCCCCCCCC(=O)*; Isovaleryl = CC(C)CC(=O)*; Octanoyl = CCCCCCCC(=O)*; Albu = not defined here; Dap = NC[C@H](N)C(=O)O; Hexanoyl = CCCCCC(=O)*; Butyryl = CCCC(=O)*

Target: T1, human ferroportin (SLC40A1) fused in frame with GFP, stably expressed in HEK293 cells (human, UniProt Q9NP59 1-571)
T1 sequence (looked up): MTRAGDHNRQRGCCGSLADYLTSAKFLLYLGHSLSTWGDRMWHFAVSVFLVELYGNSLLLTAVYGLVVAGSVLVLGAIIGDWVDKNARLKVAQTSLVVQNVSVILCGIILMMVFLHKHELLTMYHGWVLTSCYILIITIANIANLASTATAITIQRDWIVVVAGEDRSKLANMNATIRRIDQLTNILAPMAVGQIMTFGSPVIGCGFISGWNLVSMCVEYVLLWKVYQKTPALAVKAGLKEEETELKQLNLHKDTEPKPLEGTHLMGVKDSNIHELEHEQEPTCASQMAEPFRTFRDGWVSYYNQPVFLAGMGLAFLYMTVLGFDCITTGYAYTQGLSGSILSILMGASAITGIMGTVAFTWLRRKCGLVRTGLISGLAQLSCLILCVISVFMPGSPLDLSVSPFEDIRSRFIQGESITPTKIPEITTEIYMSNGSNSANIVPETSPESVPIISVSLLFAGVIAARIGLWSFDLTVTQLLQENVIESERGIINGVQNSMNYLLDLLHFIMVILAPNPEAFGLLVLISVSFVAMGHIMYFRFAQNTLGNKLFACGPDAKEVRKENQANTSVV
Experiment: cell-based or functional assay

| Potency EC50 (nM), ferroportin-GFP internalization/degradation [nM] | Binder |
| --- | --- |
| 6 | Isovaleryl-DTHFPCIKFEPHSK(Albu)GCK-NH2 (not fully specified (bridges); cysteine pairing not given here; reading uncertain) [Isovaleric acid-DTHFPCIKFEPHS-K(Albu)-GCK-NH2] |
| > 1000 | {Palmitoyl-PEG3″}-DTHFPCIKFGPRSKGWVCK-NH2 (disulfide 6-18 (inferred)) [Palm-PEG3-DTHFPCIKFGPRSKGWVCK-NH2] |
| > 10000 | Isovaleryl-DTHAPCIKFEPRSKGWECK-NH2 (not fully specified (bridges); cysteine pairing not given here) [Isovaleric acid-DTHAPCIKFEPRSKGWECK-NH2] |
| 191 | [Ida]THFPCIKFEPRSKGWVCK(Hexanoyl)-NH2 (disulfide 6-18 (inferred)) [[Ida]-THFPCIKFEPRSKGWVC-K(hexanoic acid)-NH2] |
| 129 | [Ida]THFPCIKFEPRSKGWVCK(Octanoyl)-NH2 (not fully specified (bridges); cysteine pairing not given here) [[Ida]-THFPCIKFEPRSKGWVC-K(octanoic acid)-NH2] |
| > 10000 | H-DTHFPIAIFAAICI-NH2 [Hy-DTHFPIAIFAAICI-NH2] |
| 6 | DTHFPCIKFKPRSKGWECK (N-terminal isovaleric acid; K(isoGlu-Palm) at Lys 10; C-terminal amide) [Isovaleric acid-DTHFPCIKFK(isoGlu-Palm)-PRSKGWECK-NH2] |
| 10 | Isovaleryl-DTHFPCIKFEPRSKGCK([Dap-Palmitoyl])K-NH2 (disulfide 6-16 (inferred)) [Isovaleric acid-DTHFPCIKFEPRSKGC-K(dapa-Palm)-K-NH2] |
| 7 | DTHFPCIKFKPRSKGWVC (not fully specified; N-terminal isovaleric acid; K(mysteric acid) at Lys 10; C-terminal amide) [Isovaleric acid-DTHFPCIKF-K(mysteric acid)-PRSKGWVC-NH2] |
| 116 | [Ida]THFPCIKFEPRSKGWVCK(Decanoyl)-NH2 (disulfide 6-18 (inferred)) [[Ida]-THFPCIKFEPRSKGWVC-K(decanoic acid)-NH2] |
| 30 | DTHFPCIKFKPRSKGWVC (not fully specified; N-terminal isovaleric acid; K(octanoic acid) at Lys 10; C-terminal amide) [Isovaleric acid-DTHFPCIKF-K(octanoic acid)-PRSKGWVC-NH2] |
| 52 | [Ida]THFPCIKFEPRSKGWVCK(Lauroyl)-NH2 (disulfide 6-18 (inferred)) [[Ida]-THFPCIKFEPRSKGWVC-K(lauric acid)-NH2] |
| > 1000 | Palmitoyl-DTHFPCIKFGPRSKGWVCK-NH2 (disulfide 6-18 (inferred)) [Palm-DTHFPCIKFGPRSKGWVCK-NH2] |
| 15 | Isovaleryl-DTHFPCIKFEPRSKKWVCK-NH2 (disulfide 6-18 (inferred)) [Isovaleric acid-DTHFPCIKFEPRSKKWVCK-NH2] |
| 355 | [Ida]THFPCIKFEPRSKGWVCK(Butyryl)-NH2 (disulfide 6-18 (inferred)) [[Ida]-THFPCIKFEPRSKGWVC-K(butyric acid)-NH2] |
| > 10000 | H-DTHFPIAIFAICI-NH2 [Hy-DTHFPIAIFAICI-NH2] |
| 480 | {4,4‑5,5‑6,6,6‑heptafluorohexanoic acid}-DTHFPCIKFGPRSKGWVCK-NH2 (disulfide 6-18 (inferred)) [4,4-5,5-6,6,6-Heptafluorohexanoic acid-DTHFPCIKFGPRSKGWVCK-NH2] |
| 22 | DTHFPCIKFKPRSKGWVC (N-terminal isovaleric acid; K(decanoic acid) at Lys 10; C-terminal amide) [Isovaleric acid-DTHFPCIKF-K(decanoic acid)-PRSKGWVC-NH2] |
| 502 | [Ida]THFPCIKFEPRSKGWVCK(Ac)-NH2 (disulfide 6-18 (inferred)) [[Ida]-THFPCIKFEPRSKGWVC-K(Ac)-NH2] |
| > 10000 | H-DTHFPIAIFAAGICI-NH2 [Hy-DTHFPIAIFAAGICI-NH2] |

| Potency EC50 (nM), ferroportin-GFP internalization/degradation [nM] | Binder |
| --- | --- |
| 29 | DTHFPCIKFKPRSKGWVC (N-terminal isovaleric acid; K(Ac) at Lys 10; C-terminal amide) [Isovaleric acid-DTHFPCIKF-K(Ac)-PRSKGWVC-NH2] |
| > 10000 | H-DTHFPIAIFICI-NH2 [Hy-DTHFPIAIFICI-NH2] |
| 4 | Isovaleryl-DTHFPCIKFEPRSKK([γGlu-Palmitoyl])CK-NH2 (disulfide 6-16 (inferred)) [Isovaleric acid-DTHFPCIKFEPRSK-K(isoglu-Palm)-CK-NH2] |
| > 300 | Isovaleryl-HFPCIKFEPRSKGWVCK(Octanoyl)-NH2 (disulfide 4-16 (inferred)) [Isovaleric acid-HFPCIKFEPRSKGWVC-K(octanoic acid)-NH2] |
| > 10000 | H-DTHFPIAIICI-NH2 [Hy-DTHFPIAIICI-NH2] |
| 10 | Isovaleryl-DTHFPCIKFEPK([Dap-Palmitoyl])SKGCK-NH2 (not fully specified (bridges); cysteine pairing not given here) [Isovaleric acid-DTHFPCIKFEP-K(dapa-Palm)-SKGCK-NH2] |
| 20 | [Ida]THFPCIKFEPRSKGWVCK(mysteric acid)-NH2 (disulfide 6-18 (inferred)) [Ida-THFPCIKFEPRSKGWVC-K(mysteric acid)-NH2] |
| 8 | Isovaleryl-DTHFPCIKFEPK([γGlu-Palmitoyl])SKGWECK-NH2 (not fully specified (bridges); cysteine pairing not given here) [Isovaleric acid-DTHFPCIKFEPK(isoGlu-Palm)-SKGWECK-NH2] |
| > 500 | Isovaleryl-DTHAPCIKFGPRSKGWVCK-NH2 (not fully specified (bridges); cysteine pairing not given here) [Isovaleric acid-DTHAPCIKFGPRSKGWVCK-NH2] |
| 10 | DTHFPCIKFKPRSKGWVC (not fully specified; N-terminal isovaleric acid; K(lauric acid) at Lys 10; C-terminal amide) [Isovaleric acid-DTHFPCIKF-K(lauric acid)-PRSKGWVC-NH2] |
| 7 | Isovaleryl-DTHFPCIKFEPRSK([Dap-Palmitoyl])GCK-NH2 (not fully specified (bridges); cysteine pairing not given here) [Isovaleric acid-DTHFPCIKFEPRS-K(dapa-Palm)-GCK-NH2] |
| 37 | DTHFPCIKFKPRSKGWVC (N-terminal isovaleric acid; K(butyric acid) at Lys 10; C-terminal amide) [Isovaleric acid-DTHFPCIKF-K(butyric acid)-PRSKGWVC-NH2] |
| 21 | DTHFPCIKFKPRSKGWVC (N-terminal isovaleric acid; K(hexanoic acid) at Lys 10; C-terminal amide) [Isovaleric acid-DTHFPCIKF-K(hexanoic acid)-PRSKGWVC-NH2] |
| 4 | DTHFPCIKFEPRSKGCKK (N-terminal isovaleric acid; K(isoglu-Palm) at Lys 18; C-terminal amide) [Isovaleric acid-DTHFPCIKFEPRSKGCK-K(isoglu-Palm)-NH2] |
| > 1000 | H-DTHFPCIKFGPRSKGWVCK-NH2 (disulfide 6-18 (inferred)) [Hy-DTHFPCIKFGPRSKGWVCK-NH2] |
| 5 | Isovaleryl-DTHFPCIKFEPK([γGlu-Palmitoyl])SKGCK-NH2 (not fully specified (bridges); cysteine pairing not given here) [Isovaleric acid-DTHFPCIKFEP-K(isoglu-Palm)-SKGCK-NH2] |
| 17 | Isovaleryl-DTHFPCIK([dapa-Palmitoyl])FEPRSKGCK-NH2 (not fully specified (bridges); cysteine pairing not given here) [Isovaleric acid-DTHFPCI-K(dapa-Palm)-FEPRSKGCK-NH2] |
| 50 | Isovaleryl-DTHFPCIKAGPRSKGWVCK-NH2 (not fully specified (bridges); cysteine pairing not given here) [Isovaleric acid-DTHFPCIKAGPRSKGWVCK-NH2] |
| 60 | Isovaleryl-ATHFPCIKFGPRSKGWVCK-NH2 (disulfide 6-18 (inferred)) [Isovaleric acid-ATHFPCIKFGPRSKGWVCK-NH2] |
